Source: the supplement of paper PMC9876800

System: peptide library, one residue held at a place counted from the S/T acceptor
Assay: relative phosphorylation of the sub-library (ratio to the mean residue at this position); higher = residue favoured
In short: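 Relative sub-library phosphorylation is a ratio to the mean residue at the same position. Purified recombinant kinases were incubated under kinase-specific conditions with biotinylated degenerate peptide sub-libraries, each fixing one residue at one position around a central Ser/Thr, using 50 μM peptide and 50 μM ATP spiked with γ-32P-ATP for 90 min. Spots captured on streptavidin membranes were phosphorimaged and quantified by densitometry.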

Sequence of NEK2, construct: Full length, human (P51955 whole entry, looked up): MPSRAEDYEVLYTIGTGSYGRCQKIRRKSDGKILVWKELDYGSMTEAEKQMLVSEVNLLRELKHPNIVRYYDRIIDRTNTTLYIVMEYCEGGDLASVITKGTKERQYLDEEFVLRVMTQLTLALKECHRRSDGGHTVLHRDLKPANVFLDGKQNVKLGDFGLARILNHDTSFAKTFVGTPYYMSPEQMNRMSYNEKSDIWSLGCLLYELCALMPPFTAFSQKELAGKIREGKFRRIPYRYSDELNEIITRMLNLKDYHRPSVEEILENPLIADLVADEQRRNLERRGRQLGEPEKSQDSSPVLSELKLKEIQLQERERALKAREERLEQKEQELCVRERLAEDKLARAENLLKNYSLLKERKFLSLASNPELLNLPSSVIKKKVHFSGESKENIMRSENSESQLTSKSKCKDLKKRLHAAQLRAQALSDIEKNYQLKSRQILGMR
Sequence of NEK3, construct: Full length, human (P51956 whole entry, looked up): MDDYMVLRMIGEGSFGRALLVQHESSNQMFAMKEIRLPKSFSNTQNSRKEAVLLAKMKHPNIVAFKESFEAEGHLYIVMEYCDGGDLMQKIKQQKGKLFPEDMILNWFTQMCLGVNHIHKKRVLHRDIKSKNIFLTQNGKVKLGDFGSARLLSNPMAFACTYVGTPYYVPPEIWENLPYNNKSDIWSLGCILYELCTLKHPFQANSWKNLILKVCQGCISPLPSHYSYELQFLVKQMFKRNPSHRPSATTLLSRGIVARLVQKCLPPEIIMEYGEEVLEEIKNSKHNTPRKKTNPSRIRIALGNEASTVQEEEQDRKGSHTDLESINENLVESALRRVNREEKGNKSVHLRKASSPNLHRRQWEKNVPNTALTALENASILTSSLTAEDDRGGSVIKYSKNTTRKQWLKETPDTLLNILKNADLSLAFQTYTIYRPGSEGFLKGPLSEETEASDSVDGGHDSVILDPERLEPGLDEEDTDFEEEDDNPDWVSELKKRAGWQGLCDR

NEK2, construct: Full length, human (from UniProt P51955)
relative phosphorylation
Conditions	at +1	at +2	at +3	at +4	at -1	at -2	at -3	at -4	at -5
A fixed	0.655	1.03	0.897	0.958	1.25	1.5	1.09	1.06	1.3
D fixed	0.189	0.318	0.782	0.806	0.644	0.552	0.307	0.772	0.938
E fixed	0.203	0.195	0.916	0.811	0.81	0.438	0.301	0.73	0.694
F fixed	1.19	0.835	0.878	0.906	0.783	1.2	2.37	1.2	1.3
G fixed	0.656	0.834	1.06	1.12	0.959	1.29	1.23	1.29	1.14
H fixed	1.03	1.43	1.08	1.04	1.03	1.16	1.07	1.11	1
I fixed	1.5	0.624	0.864	0.775	0.561	0.636	0.466	0.818	0.767
K fixed	0.846	1.69	1.18	1.4	1.53	1.42	0.638	1.07	1.19
L fixed	1.79	0.638	1.06	0.949	0.917	0.799	1.89	1.04	0.828
M fixed	2.1	0.873	0.899	0.875	1.4	1.11	1.77	0.964	0.862
N fixed	0.85	0.888	1.02	0.964	1.04	0.989	0.733	0.931	0.884
P fixed	0.151	0.771	1.08	1.14	0.23	0.405	0.965	0.963	1.04
Q fixed	1.26	0.696	0.874	1.06	1.21	0.852	0.661	0.881	0.81
R fixed	1.26	3.71	1.5	1.45	1.98	1.75	0.77	0.902	1.18
V fixed	1.18	0.71	0.875	0.745	0.743	0.65	0.48	0.828	0.934
W fixed	0.983	0.748	0.916	1.14	0.85	1.06	1.11	1.44	1.1
Y fixed	1.17	1.01	1.13	0.874	1.08	1.19	1.15	1.01	1.03
pThr fixed	0.425	0.383	0.557	0.688	0.278	0.449	0.545	0.747	0.658
pTyr fixed	0.547	0.275	0.758	0.62	0.697	0.525	0.752	0.642	0.66

NEK3, construct: Full length, human (from UniProt P51956)
relative phosphorylation
Conditions	at +1	at +2	at +3	at +4	at -1	at -2	at -3	at -4	at -5
A fixed	0.842	0.788	1.09	0.919	1.02	0.977	1.09	1.16	1.06
D fixed	0.145	0.299	0.257	0.346	0.588	0.551	0.343	0.456	0.653
E fixed	0.12	0.323	0.219	0.321	0.496	0.632	0.36	0.511	0.632
F fixed	1.67	0.786	1.1	0.796	0.841	1.37	1.98	1.43	1.05
G fixed	0.687	1.41	1.42	1.64	1.33	1.45	1.51	1.28	1.25
H fixed	1.13	1.45	1.07	1.35	1.45	1.21	1.11	1.03	1.17
I fixed	1.65	0.967	1.12	0.984	0.629	0.749	0.642	0.798	0.97
K fixed	0.579	1.4	1.07	1.24	1.07	0.866	0.478	1.02	1.1
L fixed	1.29	0.674	1.22	0.841	0.865	1.19	1.65	1.09	0.959
M fixed	1.94	1.09	1.05	0.982	1.59	1.42	1.87	1.2	1.27
N fixed	0.416	1.21	0.721	1.05	1.03	0.903	0.657	0.848	1.02
P fixed	0.351	0.719	1.2	1.38	0.204	0.259	0.495	0.597	0.821
Q fixed	0.719	0.826	0.873	0.769	0.846	0.826	0.561	0.867	0.74
R fixed	0.807	2.17	1.28	1.6	2	0.822	1.05	1.05	1.54
V fixed	1.66	0.904	1.01	0.768	0.739	0.734	0.486	0.823	0.7
W fixed	1.56	0.774	1.27	1.08	0.938	1.49	1.42	1.79	0.993
Y fixed	1.42	1.21	1.05	0.958	1.36	1.55	1.28	1.05	1.07
pThr fixed	0.188	0.183	0.26	0.166	0.146	0.255	0.386	0.57	0.612
pTyr fixed	0.165	0.278	0.254	0.254	0.414	0.612	0.399	0.446	0.642
